In article PMC2150872 (The Journal of Cell Biology, 2001):
Values belong to the binder of their own block, whether it stands above or below them.

Experiments:
[1] = target: T1, keratin 5 (human, UniProt P13647 1-590); assay: filament reconstitution
T1 sequence (looked up): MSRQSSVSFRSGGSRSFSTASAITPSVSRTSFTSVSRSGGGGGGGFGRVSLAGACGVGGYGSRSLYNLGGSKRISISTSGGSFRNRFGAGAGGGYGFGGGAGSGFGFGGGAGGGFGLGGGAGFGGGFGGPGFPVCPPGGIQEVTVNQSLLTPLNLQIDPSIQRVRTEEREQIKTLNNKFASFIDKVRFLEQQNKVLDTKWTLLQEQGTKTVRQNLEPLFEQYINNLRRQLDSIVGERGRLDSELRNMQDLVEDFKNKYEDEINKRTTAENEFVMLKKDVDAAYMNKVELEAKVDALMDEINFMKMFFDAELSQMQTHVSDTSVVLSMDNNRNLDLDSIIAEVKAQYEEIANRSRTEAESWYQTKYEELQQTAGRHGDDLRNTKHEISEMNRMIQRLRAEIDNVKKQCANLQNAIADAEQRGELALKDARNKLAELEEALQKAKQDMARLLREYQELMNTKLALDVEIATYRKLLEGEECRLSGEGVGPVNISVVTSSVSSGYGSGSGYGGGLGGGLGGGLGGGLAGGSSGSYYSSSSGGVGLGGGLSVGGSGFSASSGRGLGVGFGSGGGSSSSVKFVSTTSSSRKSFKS

[2] = target: T2, wt K5–K14 filaments (human, UniProt P13647 1-590; P02533 1-472); assay: co-sedimentation
T2 sequence (looked up) 1: T1 sequence (looked up)
T2 sequence (looked up) 2: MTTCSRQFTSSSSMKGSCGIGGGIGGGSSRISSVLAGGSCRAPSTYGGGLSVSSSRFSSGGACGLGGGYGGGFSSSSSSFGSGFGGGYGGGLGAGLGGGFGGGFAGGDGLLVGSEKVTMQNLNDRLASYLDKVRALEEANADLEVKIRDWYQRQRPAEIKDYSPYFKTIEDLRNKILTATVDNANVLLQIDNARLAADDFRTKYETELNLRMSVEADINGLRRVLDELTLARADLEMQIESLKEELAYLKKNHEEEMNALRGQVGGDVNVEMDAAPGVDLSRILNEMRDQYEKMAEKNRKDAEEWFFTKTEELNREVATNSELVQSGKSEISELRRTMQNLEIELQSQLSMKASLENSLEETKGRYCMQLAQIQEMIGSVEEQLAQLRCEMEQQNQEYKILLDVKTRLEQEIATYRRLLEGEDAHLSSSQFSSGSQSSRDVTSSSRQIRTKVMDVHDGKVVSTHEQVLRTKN

binding result [1]: binds
B1: keratin 19 (natural protein, human, UniProt P08727 1-400, looked up)
chain: MTSYSYRQSSATSSFGGLGGGSVRFGPGVAFRAPSIHGGSGGRGVSVSSARFVSSSSSGAYGGGYGGVLTASDGLLAGNEKLTMQNLNDRLASYLDKVRALEAANGELEVKIRDWYQKQGPGPSRDYSHYYTTIQDLRDKILGATIENSRIVLQIDNARLAADDFRTKFETEQALRMSVEADINGLRRVLDELTLARTDLEMQIEGLKEELAYLKKNHEEEISTLRGQVGGQVSVEVDSAPGTDLAKILSDMRSQYEVMAEQNRKDAEAWFTSRTEELNREVAGHTEQLQMSRSEVTDLRRTLQGLEIELQSQLSMKAALEDTLAETEARFGAQLAHIQALISGIEAQLGDVRADSERQNQEYQRLMDIKSRLEQEIATYRSLLEGQEDHYNNLSASKVL

Kd [2]: ~2000 nM
Binder: SSSQFSSGSQSSRDVTSSSRQIRTKVMDVHDGKVVSTHEQVLRTKN (domain or fragment) [His-T14 (His-tagged nonhelical tail domain of human keratin 14)]
